Source: PMC3021567, “Gene expression profiling of connective tissue growth factor (CTGF) stimulated primary human tenon fibroblasts reveals an inflammatory and wound healing response in vitro” (Molecular Vision, 2011)

Biological target: T1, recombinant human connective tissue growth factor (human, UniProt P29279 27-349)
T1 construct: signal peptide in the construct; connective tissue growth factor (CTGF), human, cDNA for full-length rhCTGF aa 1-349, Swiss-Prot P29279; secreted into the supernatant of HEK293T cells; The purified protein runs as two bands, 36 kDa (unglycosylated) and 38 kDa (glycosylated); No tag is mentioned; also called hCTGF; rhCTGF
T1 sequence (looked up): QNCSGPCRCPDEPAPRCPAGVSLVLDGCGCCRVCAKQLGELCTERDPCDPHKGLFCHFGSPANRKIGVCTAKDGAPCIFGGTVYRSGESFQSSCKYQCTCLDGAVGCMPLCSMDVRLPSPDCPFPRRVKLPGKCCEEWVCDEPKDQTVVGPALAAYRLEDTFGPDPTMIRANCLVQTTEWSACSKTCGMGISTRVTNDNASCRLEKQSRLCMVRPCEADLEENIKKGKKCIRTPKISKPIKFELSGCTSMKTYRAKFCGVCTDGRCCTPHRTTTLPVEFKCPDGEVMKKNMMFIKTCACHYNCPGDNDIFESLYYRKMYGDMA
Assay: SPR; BIACORE 2000; biotinylated BMP-2 immobilised on a streptavidin-coated CM5 chip at about 500 RU; CTGF flowed over at 10 ul/min, 25 °C; association 5 min, dissociation 3 min; regeneration with 4 M MgCl2; kinetic data fitted to a 1:1 Langmuir model; two independent experiments, at least six concentrations; apparent KD
Details: both partners purified

B1: bone morphogenetic protein 2 (ligand, UniProt P12643 283-396, looked up)
chain: QAKHKQRKRLKSSCKRHPLYVDFSDVGWNDWIVAPPGYHAFYCHGECPFPLADHLNSTNHAIVQTLVNSVNSKIPKACCVPTELSAISMLYLDENEKVVLKNYQDMVVEGCGCR
modifications: biotin (biotinylated BMP-2; site not stated)
notes: bone morphogenetic protein 2 (BMP-2); also called BMP-2; source: expressed and purified as described [19]
  Kd: 400 nM
